Measured values reported in US20250074972A1, “ANTIBODIES AND METHODS FOR GENERATING THE SAME” (priority 2021, published 2025).

B1: D3: Utr2 antibody; SEQ ID NO: 26 (protein)
scFv: QMQLVQSGAEVKKPGESLKISCKGSGYSFTSYWIGWVRQMPGKGLEWMGIIYPGDSDTRYSPSFQGQVTISADKSISTAYLQWSSLKASDTAMYYCARLKTGDQLPDIWGQGTMVTVSSLEGGGGSGGGGSGGGASDIVMTQTPLSLSVTPGQPASISCKSSQSLLHSDGKTYLYWYLQKPGQPPQLLIYEVSNRFSGVPDRFSGSGSGTDFTLKISRVEAEDVGVYYCMQTIQLPATFGGGTKLEIRR
modifications: D3 Amino Acid Sequence
B2: 1C2: Utr2 antibody; SEQ ID NO: 14 (protein)
scFv: QVQLVQSGAEVKKPGASVKVSCKASGYTFTSYAMHWVRQAPGQRLEWMGWINAGNGNTKYSQKFQGRVTITRDTSASTAYMELSSLRSEDTAVYYCARGGAAAGYYMDVWGKGTLVTVSSLEGGGGSGGGGSGGGASNFMLTQPHSVSESPGKTVTISCTRSSGSIASNYVQWYQQRPGSSPTTVIYDDNQRPSGVPDRFSASIDSSSNSASLTISGLKTEDEADYYCQSYDSSIVVFGGGTKLTVLG
modifications: 1C2 Amino Acid Sequence
B3: C8: Utr2 antibody; SEQ ID NO: 18 (protein)
scFv: EVQLVQSGAEVKKPGSSVKVSCKASGGTFSSYAISWVRQAPGQGLEWMGIINPSGGSTSYAQKFQGRVTMTRDTSTSTVYMELSSLRSEDTAVYYCARGTKGKDYYYMDVWGKGTLVTVSSLEGGGGSGGGGSGGGASDIQMTQSPSSLSASVGDRVTITCRASQSISTYLNWYQQKPGTAPNLLIYGASNLQSGVPSRFSGSGSGTDFTLTISSLQPEDFATYYCQQSYSTPLTFGGGTKVDIKR
modifications: C8 Amino Acid Sequence
B4: 1D2: Utr2 antibody; SEQ ID NO: 24 (protein)
scFv: QVQLVQSGAEVKKPGASVKVSCKASGYSFTNYDIYWVRQATGQGLEWVGFINPKTGKTGYAQKFQGRVTMSRDTSITTAYMELNSLTSEDTAVYYCASISGYWGQGTLVTVSSLEGGGGSGGGGSGGGASDIVMTQSPLSLPVTLGQPASISCRSSQSLVYSDGNTYLNWFQQRPGQSPRRLIYKVSNRDSGVPDRFSGSGSGTDFTLKISRVEAEDAGLYYCMQGSHWPPTFGQGTKVEIKR
modifications: 1D2 Amino Acid Sequence
B5: B5: Utr2 antibody; SEQ ID NO: 12 (protein)
scFv: QVQLVESGGGVVQPGRSLRLSCAASGFTFSSYGMHWVRQAPGKGLEWVAVISYDGSNKYYADSVKGRFTISRDNSKNTLYLQMNSLKTEDTAQYYCVRVRRSGMARGLIDYWGQGTLVTVSSLEGGGGSGGGGSGGGASSYELTQDPAVSVALGQTVRITCQGDILRSYYASWYQQKPGQAPVLVIYGKNNRPSGIPDRFSGSSSGNTASLTITGAQAEDEADYYCNSRDSSGNHKVFGGGTKVTVLG
modifications: B5 Amino Acid Sequence
B6: 1B1: Utr2 antibody; SEQ ID NO: 10 (protein)
scFv: QGQLVQSGGGVVQPGRSLRLSCAASGFTFSSYAMHWVRQAPGKGLEWVAVISYDGSNKYYADSVKGRFTISRDNSKNTLYLQMNSLRAEDTAVYYCARIAHPRTRGGKEVEYFQHWGQGTLVTVSSLEGGGGSGGGGSGGGASDIVMTQTPLSSPVTLGQPASISCRSSQSLVYSDGNTYLNWFQQRPGQSPRRLIYKVSNRDSGVPDRFSGSGSGTDFTLKISRVEAEDVGVYYCMQGTHWPPSFGQGTKLEIKR
modifications: 1B1 Amino Acid Sequence

Key:
[1] = system: C. albicans WT strain SC5314; test: Candida albicans growth inhibition assay; type: cell-based; conditions: OD 405 nm
Description: The antifungal activity of Utr2 scAbs was assessed by measuring the growth of fungal cells in microtitre plates. A growth assay was carried out with C. albicans WT strain SC5314 and using caspofungin as a positive control. A starting concentration of 100 μg/ml was prepared for the test scAbs (B5, C8, D3, 1H3, 1B1 and 1D2) and caspofungin and these were double diluted in a 96 well microtitre plate in designated wells. The wells were inoculated using 50 μl 2×10^6 cells/ml diluted in RPMI-1640 medium and incubated for 24 h and 48 h at 37° C. Cell growth was determined by measuring optical density at 405 nm in a spectrophotometer.

[2] = system: A. fumigatus AF293/FGSC1100 hyphae; test: Whole cell binding ELISA, A. fumigatus hyphae; parameters: species or system Aspergillus fumigatus; conditions: starting concentration 100 μg/ml scAb
Description: C. albicans Utr2 shares certain degree of sequence similarity with S. cerevisiae Utr2, S. cerevisiae Crh1 and an Aspergillus fumigatus allergen Aspf9, with highly conserved putative glycosyl hydrolase domains (Alberti-Segui et al., 2004). The cross-reactivity of selected Utr2 scAbs to A. fumigatus was tested by performing a whole cell binding ELISA using C. albicans SC5314 and A. fumigatus AF293/FGSC1100 strains. To induce hyphal formation, wells of a MaxiSorp flat-bottom 96 well plate was coated with approximately 10^6 overnight grown cells diluted in DMEM or RPMI-1640 modified medium containing 10% heat-inactivated foetal calf serum (FCS) and incubated at 37° C. for 2-20 h. Cells were washed three times in PBS+0.05% Tween, blocked with 1.5% bovine serum albumin (BSA), and incubated at room temperature for 1 h. Cells were washed as before and a starting concentration of 100 μg/ml scAb in 1% blocking buffer was added in duplicate in doubling dilutions and incubated at room temperature for 1.5 h. After washing, cells were incubated with anti-human C kappa peroxidase antibody as described previously. Following incubation for 45 min at room temperature, wells were washed and stained with tetramethylbenzidine (TMB) and read at an absorbance of 450 nm in a VersaMax microplate reader (Molecular Devices, USA).

[3] = system: C. albicans WT and Utr2 overexpression strains; test: Immunofluorescence staining of C. albicans using Utr2 scAbs; type: cell-based, Candida albicans; conditions: scAb 10 μg/ml (1D2 repeated at 50 μg/ml)
Description: Overnight grown C. albicans WT and Utr2 overexpression strains were diluted and left to adhere on a poly-L-lysine glass slide for 1 h. To induce hyphal growth the cells were grown in DMEM medium containing 10% heat-inactivated foetal calf serum (FCS) and incubated at 37° C. for 2 h. Cells were washed three times in Dulbecco's phosphate-buffered saline (DPBS) and fixed with 4% paraformaldehyde at room temperature for 15 minutes. After washing, cells were blocked with 1.5% BSA and incubated for 1 h. Cells were washed as before and stained with Utr2 scAbs at 10 μg/ml for 1 h at room temperature. After washing, cells were stained with FITC-labelled anti-human kappa light chain antibody (1 μg/ml) and incubated at room temperature for 1 h. Cells were washed again and stained with 25 μg/ml of Calcofluor white (CFW) to illuminate chitin-containing structures. Mounting medium was added with a coverslip before images were taken using an UltraVIEW® Vox spinning disk confocal microscope (Perkin Elmer, Waltham, Mass, USA). Calcofluor white stain was viewed at lower brightness (×1) and FITC stain was viewed at higher brightness (×8). Calcofluor white stained the chitin rich cell wall as well as septa of both C. albicans strains.
The immunofluorescence staining was repeated for 1D2 scAb with higher concentration of scAb (50 μg/ml) and FITC-labelled anti-human kappa light chain antibody (5 μg/ml). […]

[4] = after 24 h, top concentration of 100 μg/ml

Row | Molecule | growth inhibition ([1]; after 48 h incubation) | cross-reactivity to A. fumigatus hyphae [2] | growth inhibition [1, 4] [%] | immunofluorescence staining [3]
1 | B1 | approximately 40% |  |  | 
2 | B2 |  | cross-reactive |  | 
3 | B3 | No further reduction |  | 40 | 
4 | B4 |  | cross-reactive |  | specifically stained the hyphal tips and bud surface
5 | B5 | No further reduction |  | 40 | 
6 | B6 |  | cross-reactive |  | minimal staining
